Reference: the RNAGym collection of RNA variant scans (doi:10.1073/pnas.2313332121)

B1: TPR t1 (parent)
chain: GACCAAUCUGCCCUCAGAGCUCGAGAACAUCUUCGGAUGCAGAGGAGGCAGGCUUCGGUGGCGCGAUAGCGCCAACGUCCUCAACCUCCAAUGCAUCCCACCACAUGAUGAUGCCUGAAGAGCCUUGGUUUUUUG

Variants of: B1
Test: polymerase ribozyme fitness, log enrichment relative to wild type (log ratio); higher = more active; in vitro selection for triplet polymerase activity
How it was run: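 One round of in vitro selection, in triplicate, was applied to PCR-built, transcribed mutant libraries of each subunit of a heterodimeric triplet polymerase ribozyme. The steps were annealing with a biotinylated primer, partner subunit and triplets, incubation frozen at −7 °C, gel excision of extended constructs, streptavidin-bead capture and RT-PCR. Fitness is the logarithm, base 2, of genotype enrichment over wild-type enrichment from inverse-variance-weighted replicate averages of Illumina-sequenced inputs and outputs, keeping genotypes with ≥10 input reads and ≥1 read per output.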

| Variant | polymerase ribozyme fitness (log ratio) |
| --- | --- |
| C40G G44C A74U U78G | -2.88 |
| A118G G122U | 0.311 |
| G48U C70U C114A | -2.21 |
| A50U C56U | -0.861 |
| G69U G120U | 1.02 |
| G48A G71C U96C | -1.75 |
| G58A A103G | -4.88 |
| A43U C56G C79G | -4.99 |
| G39U C88U C94U U106G A121C | -0.0673 |
| C80A C82U A83U C101G | -5.83 |
| C49G C82G A118U | -0.627 |
| A6G U7G A18C G48U C53A G63A C115A U133A | -1.29 |
| C12A G71U G117C U126C | -6.35 |
| A6G A111U | -2.51 |
| A6C C40A C53G C99U U109A U112G | -5.56 |
| C15U U55G G69A | -3.22 |
| G23U A29G C70A A83U C85A C115U | -7.23 |
| C94A G128A | -2.41 |
| A37G G45C C89U A95G | -5.88 |
| A16C C56U A84C C85U A100C | -4.89 |
| U106A G110U | -0.605 |
| A5U U9C G45A | -0.0819 |
| U32C C53U A103C | -4.2 |
| C56U G127C | -1.62 |

| Variant | polymerase ribozyme fitness (log ratio) |
| --- | --- |
| C22G U112G | -2.35 |
| A50G C82A G120U | -0.452 |
| G25A A121U | -2.9 |
| G57C C89G | -0.917 |
| G69C U130A | -1.59 |
| U7G C15G C49G U112G | -1.33 |
| C20A U87G A100G C102A A119G | -5.22 |
| A5U A41C U55C U59C C82G G120C U125A | -2.81 |
| U126G | -1.7 |
| C62U C89A C124A | 0.0858 |
| C8U C11U A50U | -1.25 |
| A43C C62G | -5.4 |
| C56G U96A C123G U130C | 0.506 |
| G47C U54G G58C G69U C123G | 0.703 |
| A27C C53U C72U U125A | -3.83 |
| C40U G117A | -1.87 |
| A27G C40G | -1.89 |
| G48U C53G G69U | -0.128 |
| C11A C40G U129A | -3.42 |
| C11U G44C C104U U116C | -3.59 |
| A84U C94A C115A | -1.46 |
| C72A C85A A121C | 1.56 |
| C53A G60A U133A | -1.16 |
| G10A G61A | 0.248 |

| Variant | polymerase ribozyme fitness (log ratio) |
| --- | --- |
| G10A G128U | -2.02 |
| C62U U96A | -0.822 |
| G39U C79U | -0.704 |
| C13G C34A | -4.26 |
| C8G A46U G63C | -0.288 |
| U54A C115G | -2.09 |
| C11U G44C | -1.47 |
| A6C G117U U126A U131C | -6.38 |
| C56U G107A | -4.63 |
| C72A U78A C124A U132C U133A | 1.3 |
| G57U G122A | -1.56 |
| C12U A26G C56U G69U G117A U125G | -4.97 |
| G10U G19C A37U C72A C123G U130C | -1.39 |
| G61U G120A | 0.595 |
| G10A C73U A84U G110U | -2.38 |
| C3U C40G G42U C82U C89U C94U | -3.64 |
| A46C C89A | -5.69 |
| C13U G45A G71C | -0.496 |
| C20A G93A | -3.32 |
| C3A G44A A46U C53G C115U | -6.56 |
| U81G U125A U131G | -4.64 |
| U7A G35A U78G | -4.41 |
| C62G C115A | -1.81 |
| C99U C114U | -4.12 |

| Variant | polymerase ribozyme fitness (log ratio) |
| --- | --- |
| G69A U81A C86G | -4.96 |
| U21C C56U A84C C98A | -4.77 |
| U9A C31U G44U G52U A111U | -5.37 |
| C8U C56A U81G G120C | 0.594 |
| C62U A84C G117C C124A | -2.09 |
| C11G U125A | -0.25 |
| A100C U112C A118G | 0.0171 |
| G63C C101U G127U | -1.08 |
| C4U A43U U96A | -3.02 |
| C79A U81C G120U G135C | -2.91 |
| G63U C73U | -2.45 |
| G42A A83C | -1.87 |
| G17A G47A A111U | -5.85 |
| C62U C98G | -5.88 |
| U9G A46U U55G A103C | -4.6 |
| G60A C79U U130C | 0.829 |
| U9C G47C U132C | -1.22 |
| C13A C79G | -3.47 |
| U92A G117U | -4.95 |
| C12G G48U C62U | -1 |
| G36U G69U A75U | -0.726 |
| G71C U78A A118G | -0.642 |
| C11G A50C U92G C114A G122C U131C | -3.35 |
| U55C U96A U106A | -0.506 |

| Variant | polymerase ribozyme fitness (log ratio) |
| --- | --- |
| A74U U96A A100U G113U | -6.78 |
| C11G G17A U81A C85U G117C | -4.91 |
| C11A C12A C28U C31G G52A G63C G113C U116A | -5.83 |
| C40G C124A | 1.16 |
| A26U C62G | -4.89 |
| C12G C64A | -6.46 |
| A27C U78G U125A | -4.05 |
| U7C U87C U92G G122A C123U | -1.22 |
| A83G C97U U109A | -5.36 |
| U96G G120U | -0.269 |
| G35C C73A | -5.42 |
| C4A A5G | -1.02 |
| G71C G93C G127A | -2.95 |
| C20A C76A U106A | -4.96 |
| A5C G69U C72U C79A U92A | -3.86 |
| A46C C72G G135U | -2.4 |
| C15G A24G C89G C124G | -6.51 |
| G47A G61U | -1.24 |
| G10A G42U C49A G61C C98A U112G U130G | -7.46 |
| A6C C72U | -0.203 |
| G113C G122A G135U | -4.5 |
| G47C C102A | -3.89 |
| A27C C123A | -3.14 |
| A5U A18U C94G A105G C123G | -6.51 |

| Variant | polymerase ribozyme fitness (log ratio) |
| --- | --- |
| C8A A27C U33G G36C G42U G110C G113C | -6.47 |
| C114U G127A | -3.37 |
| C8G C11U C124A | 2.24 |
| G47U C56G A118U G122A | -2.71 |
| U7A U92A G120A U133A | -0.782 |
| U87C C94A | -0.939 |
| C11U C15G G36C | -7.38 |
| C34G G63C | -6.66 |
| C8G A29U G120U | 0.42 |
| G35U A75U C124A | -4.78 |
| G10C U92C G113U | -4.69 |
| A16U C62U | -1.92 |
| G51C C53U C56U C89G U112G | -5.96 |
| G52A U87C G117C | -3.1 |
| C97U G120U C124A | 0.793 |
| A111C G117C | -4.16 |
| G60A A91C | -1.35 |
| A90U A100C A119G | -2.07 |
| A6G C8A U125A | 0.146 |
| G52C G71U C73U C104U G120C | -2.42 |
| A41U C94U A111G G128U | -4.31 |
| C62U U116A G128A | -5.25 |
| G117U | -2.21 |
| A2G C13G C123G | 1.11 |

| Variant | polymerase ribozyme fitness (log ratio) |
| --- | --- |
| C11G G42C G69U A111C | -0.0543 |
| A6G A41C G57U G60A A100U | -2.82 |
| C3A G10A A75G C86G C98U G122A | -2.58 |
| C13U C70G | -1.68 |
| U33A G45A G63C | -5.54 |
| A18U G60A | -2.24 |
| C49U C73G | -0.732 |
| C12A A37U A105G G122A | -3.74 |
| A50G C123A | 0.295 |
| A5U A66U A75G C76A C94A G120A U130G | -5.41 |
| C28U G93A | -1.92 |
| G57A C64G U67G U81A A111U | -6.28 |
| C15U A74U A83C A100U U116A | -5.53 |
| C34A G69C A111G | -5.23 |
| C12U G57A | -0.879 |
| U9G A37U A43U C73A C98A C124A | -7.17 |
| C11U U54A | -0.542 |
| U9C A41G G45U C82U C85G | -4.04 |
| C3A A5U A29G U116C | -2.92 |
| A50C C89U | -1.06 |
| C98U G120C | -0.208 |
| C11U C20A A29U G117U | -4.71 |
| A46U U106G | -2.72 |
